Test results published in PMC5749160, “Disruption of an RNA-binding hinge region abolishes LHP1-mediated epigenetic repression”.

Biological target: T1, GST-LHP1 (Arabidopsis thaliana (Col-0 cDNA), UniProt Q946J8 1-445)
T1 sequence: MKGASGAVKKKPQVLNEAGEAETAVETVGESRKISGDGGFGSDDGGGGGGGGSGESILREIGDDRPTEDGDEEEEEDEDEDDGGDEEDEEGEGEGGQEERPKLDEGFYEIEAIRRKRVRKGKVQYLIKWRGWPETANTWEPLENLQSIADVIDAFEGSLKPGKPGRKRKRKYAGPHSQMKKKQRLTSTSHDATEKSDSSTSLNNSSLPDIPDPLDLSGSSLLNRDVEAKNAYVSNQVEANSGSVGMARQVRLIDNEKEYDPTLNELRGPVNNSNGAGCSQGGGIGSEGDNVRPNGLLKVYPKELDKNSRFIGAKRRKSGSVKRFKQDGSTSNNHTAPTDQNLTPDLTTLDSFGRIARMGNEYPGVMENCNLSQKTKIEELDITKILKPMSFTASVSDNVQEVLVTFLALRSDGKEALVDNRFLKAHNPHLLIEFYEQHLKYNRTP
Assay: EMSA; EMSA: 20 mM HEPES-KOH pH 7.5, 100 mM KCl, 0.05% NP-40, 10 nM Cy5 probe (1 uL of 100 nM + 9 uL protein), 30 min room temperature; 1.6% TBE-agarose gel
Details: protein: recombinant; tags: N-terminal GST (pGEX-4T-1); label: 5' Cy5; single-stranded

B1: FLC 40-nt ssRNA (ssRNA)
RNA: CUCCUCCGGCGAUAAGUACGCCUUUUCCUUACCUGGGUUU
  Kd: ~200 nM
